# Experimental data: publication doi:10.1101/2023.10.13.562155 (bioRxiv, 2023)
# T1: human p75^NTR JXT domain (K273-D332) (human, UniProt P08138 273-332)
# T1 sequence (looked up): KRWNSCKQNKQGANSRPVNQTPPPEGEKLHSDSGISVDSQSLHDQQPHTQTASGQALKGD
# B1: RhoGDI NTD^S34D (A2-A60) (domain or fragment, human, UniProt P52565 2-60, looked up)
# chain: AEQEPTAEQLAQIAAENEEDEHSVNYKPPAQKDIQEIQELDKDDESLRKYKEALLGRVA
# Molecular target: T1, human p75^NTR JXT domain (K273-D332)
# Assay: NMR titration
binder,measurement,value
B1,binding result,binds
